Measured values as given in publication PMC4002113, “The p97-FAF1 Protein Complex Reveals a Common Mode of p97 Adaptor Binding*” (The Journal of Biological Chemistry, 2014).
“And” between values parts separate entries of the source, which are not always exact repeats. Equal values may be shown once. Each block holds one binder with its values, some of them ahead of it.

Key:
[1] = target: T1, C-terminally His-tagged full-length p97 (residues 1–806) (murine, UniProt Q01853 1-806); assay: MST; 0.06 μM dye-labelled FAF1 kept constant, full-length p97 titrated between 135 and 0.0041 μM; 20 mM HEPES, 150 mM KCl, pH 7.4; 30 °C; average of two experiments, Hill equation fit; settings: both partners purified
T1 construct: p97 (VCP), murine, full length, residues 1–806, in PET22b; Hexamer, with a minor dodecamer, by SV-AUC; also called VCP; valosin-containing protein
T1 sequence (Q01853 whole entry, the tested form may be a part): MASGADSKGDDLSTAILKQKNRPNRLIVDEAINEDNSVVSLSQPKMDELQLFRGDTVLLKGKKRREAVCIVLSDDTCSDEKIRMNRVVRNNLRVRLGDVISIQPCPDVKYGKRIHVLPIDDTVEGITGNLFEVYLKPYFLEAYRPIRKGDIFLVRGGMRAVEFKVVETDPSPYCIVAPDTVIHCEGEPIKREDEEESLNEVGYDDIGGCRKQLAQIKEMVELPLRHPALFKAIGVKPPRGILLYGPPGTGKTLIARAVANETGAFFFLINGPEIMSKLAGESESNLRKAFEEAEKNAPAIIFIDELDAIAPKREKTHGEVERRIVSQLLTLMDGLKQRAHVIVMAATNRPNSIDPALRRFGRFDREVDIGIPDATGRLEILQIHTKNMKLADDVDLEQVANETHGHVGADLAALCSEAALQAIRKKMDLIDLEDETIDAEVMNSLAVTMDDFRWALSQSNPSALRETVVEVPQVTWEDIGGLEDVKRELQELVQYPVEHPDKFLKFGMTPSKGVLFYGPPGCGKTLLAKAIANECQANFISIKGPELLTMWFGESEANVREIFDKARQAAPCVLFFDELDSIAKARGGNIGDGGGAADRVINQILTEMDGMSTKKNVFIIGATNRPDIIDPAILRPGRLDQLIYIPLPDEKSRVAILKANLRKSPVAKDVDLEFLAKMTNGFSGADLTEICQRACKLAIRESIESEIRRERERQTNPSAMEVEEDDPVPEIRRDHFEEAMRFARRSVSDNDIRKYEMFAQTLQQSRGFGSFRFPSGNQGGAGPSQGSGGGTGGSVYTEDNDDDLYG

[2] = target: the molecule itself; assay: native MS; full-length FAF1 at 10 μM in 200 mM ammonium acetate pH 7.5; Q-ToF modified for high mass detection
[3] = target: T1, C-terminally His-tagged full-length p97 …; assay: ITC; full-length p97 in the cell at 10–50 μM, FAF1 or FAF1 truncation as titrant at 7.5 to 10 times the cell concentration; 20 mM HEPES, 150 mM KCl, pH 7.4; 30 °C; average of two measurements; settings: both partners purified
[4] = target: the molecule itself; assay: cross-linking; 15 μM FAF1 or truncation in SEC buffer with ethyl glycol bissuccinimidyl succinate (EGS), 15 min at room temperature, stopped with Tris, SDS-PAGE

Kd [1]: 130 nM
KD site 1 (two-site model) [3]: 0.8 µM
KD site 2 (two-site model) [3]: 19 µM
Kd [3]: 5.2 µM
stoichiometry N [3]: 0.8 ± 0.03 FAF1 per p97
B1: N-terminally His-tagged full-length FAF1 (natural protein, murine, UniProt P54731 1-649, looked up)
chain: MASNMDREMILADFQACTGIENIDEAITLLEQNNWDLVAAINGVIPQENGILQSDFGGETMPGPTFDPASHPAPASTPSSSAFRPVMPSRQIVERQPRMLDFRVEYRDRNVDVVLEDSCTVGEIKQILENELQIPVPKMLLKGWKTGDVEDSTVLKSLHLPKNNSLYVLTPDLPPPSSSSHAGALQESLNQNFMLIITHREVQREYNLNFSGSSTVQEVKRNVYDLTSIPVRHQLWEGWPASATDDSMCLAESGLSYPCHRLTVGRRTSPVQTREQSEEQSTDVHMVSDSDGDDFEDASEFGVDDGEVFGMASSTLRKSPMMPENAENEGDALLQFTAEFSSRYGDCHPVFFIGSLEAAFQEAFYVKARDRKLLAIYLHHDESVLTNVFCSQMLCAESIVSYLSQNFITWAWDLTKDTNRARFLTMCNRHFGSVIAQTIRTQKTDQFPLFLIIMGKRSSNEVLNVIQGNTTVDELMMRLMAAMEIFSAQQQEDIKDEDEREARENVKREQDEAYRLSLEADRAKREAHEREMAEQFRLEQIRKEQEEEREAIRLSLEQALPPEPKEENAEPVSKLRIRTPSGEFLERRFLASNKLQIVFDFVASKGFPWDEFKLLSTFPRRDVTQLDPNKSLLEVNLFPQETLFLQAKE
modifications: NanoTemper495-N-hydroxysuccinimide blue/red dye label (in the MST only)
notes: Fas-associated factor 1 (FAF1), full length, in pProEx; the truncations end at residue 649; N-terminally His-tagged FAF1 was used for all experiments except nanogold labelling; also called Fas-associated factor 1; His-tagged FAF1; source: held on the nickel column from cleared lysate in the pull-down; not shown: His tag, N-terminal, kept
stoichiometry N [2]: 2 and 3

Kd [3]: 3.9 µM
stoichiometry N [3]: 0.98 ± 0.1 FAF1-UBX per p97
B2: FAF1-UBX(550–649) (domain or fragment, murine, UniProt P54731 550-649, looked up)
chain: EAIRLSLEQALPPEPKEENAEPVSKLRIRTPSGEFLERRFLASNKLQIVFDFVASKGFPWDEFKLLSTFPRRDVTQLDPNKSLLEVNLFPQETLFLQAKE
notes: Fas-associated factor 1 (FAF1), residues 550–649 (UBX domain), in pGEx; also called UBX domain of FAF1; source: E. coli Rosetta 2 (autoinduction), purified (GSTrap, GST cleaved with HRV 3C, size-exclusion chromatography)

KD site 1 (two-site model) [3]: 0.7 µM
KD site 2 (two-site model) [3]: 12 µM
Kd [3]: 4.9 µM
stoichiometry N [3]: 0.89 ± 0.3 FAF1-CC-UBX per p97
B3: FAF1-CC-UBX(491–649) (domain or fragment, murine, UniProt P54731 491-649, looked up)
chain: QEDIKDEDEREARENVKREQDEAYRLSLEADRAKREAHEREMAEQFRLEQIRKEQEEEREAIRLSLEQALPPEPKEENAEPVSKLRIRTPSGEFLERRFLASNKLQIVFDFVASKGFPWDEFKLLSTFPRRDVTQLDPNKSLLEVNLFPQETLFLQAKE
notes: Fas-associated factor 1 (FAF1), residues 491–649 (coiled-coil and UBX domains), in pGEx; also called coiled-coil and UBX domains of FAF1; source: E. coli Rosetta 2 (autoinduction), purified (GSTrap, GST cleaved with HRV 3C, size-exclusion chromatography)
stoichiometry N [4]: 3
